{"source": "patent US20140303084A1", "about": "(Biogen, published 2014)", "note": "Square brackets hold non-standard residues; d marks the D form. Primed or numbered codes have the meaning given here. Side chains are listed from the residue outwards. Ends that are not written are not given here. * marks the point of attachment. N‑PEG5kmaleimide = Cys side chain bound to N-PEG 5 kDa maleimide; Biotin = O=C1N[C@H]2[C@H](CS[C@H]2CCCCC(=O)*)N1; Succinimide(1-Et,3-yl) = CCN1C(=O)CC(*)C1=O; PEG4(3) = not defined here; PEG12′ = not defined here; Orn = NCCC[C@H](N)C(=O)O; PEG2″ = not defined here; PEG4″ = PEG4 spacer unit; PEG5′ = not defined here; Dab = NCC[C@H](N)C(=O)O; pip = not defined here; PEG4′ = PEG4 spacer; Acm = CC(=O)NC*", "data": [{"biological_target": "human Factor IXa (human, UniProt P00740 47-191; P00740 227-461)", "experiment": "cell-based or functional assay", "units": {"EC50 [µM], FXa generation assay": "µM"}, "values": [{"binder": "KLTCLASYAWLF", "EC50 [µM], FXa generation assay": "> 1"}, {"binder": "RRAPGKLTDLASY[Dab]WLFWTGIA-NH2 (N-terminus assumed; SMILES CC[C@H](C)[C@H](NC(=O)CNC(=O)[C@@H](NC(=O)[C@H](Cc1c[nH]c2ccccc12)NC(=O)[C@H](Cc1ccccc1)NC(=O)[C@H](CC(C)C)NC(=O)[C@H](Cc1c[nH]c2ccccc12)NC(=O)[C@H](CCN)NC(=O)[C@H](Cc1ccc(O)cc1)NC(=O)[C@H](CO)NC(=O)[C@H](C)NC(=O)[C@H](CC(C)C)NC(=O)[C@H](CC(=O)O)NC(=O)[C@@H](NC(=O)[C@H](CC(C)C)NC(=O)[C@H](CCCCN)NC(=O)CNC(=O)[C@@H]1CCCN1C(=O)[C@H](C)NC(=O)[C@H](CCCNC(=N)N)NC(=O)[C@@H](N)CCCNC(=N)N)[C@@H](C)O)[C@@H](C)O)C(=O)N[C@@H](C)C(N)=O)", "note": "[RRAPGKLT-Asp-LASY-Dab-WLFWTGIA-CONH2]", "EC50 [µM], FXa generation assay": "> 10"}, {"binder": "SKQGRPISPD[dR]RAAGKLTCLASYCWLFWTGIA[PEG4″]C(N‑PEG5k maleimide) (cysteine pairing not given here)", "note": "[SKQGRPISPDrRAAGKLTCLASYCWLFWTGIA-PEG4-C(N-PEG5k maleimide)]", "EC50 [µM], FXa generation assay": "> 5"}, {"binder": "[dR][dR][dA][dP]G[dK][dL][dT][dC][dL][dA][dS][dY][dC][dW][dL][dF][dW][dT]G[dI][dA] (not fully specified; printed as rrapgkltclasycwlfwtgia (inverso); cysteine pairing not given here)", "note": "[rrapgkltclasycwlfwtgia (inverso)]", "EC50 [µM], FXa generation assay": "< 0.5"}, {"binder": "C(N‑PEG5kmaleimide)[PEG4′]LVPR[PEG4′][dR]RAPGKLTCLASYCWLFWTGIA (cysteine pairing not given here)", "note": "[C(N-PEG5kmaleimide)-PEG4-LVPR-PEG4-rRAPGKLTCLASYCWLFWTGIA]", "EC50 [µM], FXa generation assay": "> 1"}, {"binder": "C(Acm)GGGG[dF][pip]R[PEG5′][dR]RAPGKLTCLASYCWLFWTGIA (cysteine pairing not given here; reading uncertain; also: printed as C(Acm)GGGGfpipR-PEG5-rRAPGKLTCLASYCWLFWTGIA)", "note": "[C(Acm)GGGGfpipR-PEG5-rRAPGKLTCLASYCWLFWTGIA]", "EC50 [µM], FXa generation assay": "> 1"}, {"binder": "C(PEG 5 kDa)GGGRRAPGKLTDLASYKWLFWTGIA (not fully specified; printed as C(PEG5k)GGG-RRAPGKLT-Asp-LASY-Lys-WLFWTGIA)", "note": "[C(PEG5k)GGG-RRAPGKLT-Asp-LASY-Lys-WLFWTGIA]", "EC50 [µM], FXa generation assay": "> 1"}, {"binder": "ALTCLAAYCALF", "EC50 [µM], FXa generation assay": "> 1"}, {"binder": "KAACLASACWLA", "EC50 [µM], FXa generation assay": "> 20"}, {"binder": "CKTYFWK[dP]GNIMVTFC[PEG12′]K([PEG2″-Biotin])[PEG12′][dR]RAPGKLTCLASYCWLFWTGIA (cysteine pairing not given here)", "note": "[CKTYFWKpGNIMVTFC-PEG12-Lys(PEG2-Biotin)-PEG12-rRAPGKLTCLASYCWLFWTGIA]", "EC50 [µM], FXa generation assay": "> 20"}, {"binder": "KLTCLASACWLF", "EC50 [µM], FXa generation assay": "< 0.5"}, {"binder": "CGGGRRAPGKLTDLASYKWLFWTGIA", "note": "[CGGG-RRAPGKLT-Asp-LASY-Lys-WLFWTGIA]", "EC50 [µM], FXa generation assay": "< 0.5"}, {"binder": "KKKKLTCLASYCWLFKKK", "EC50 [µM], FXa generation assay": "> 5"}, {"binder": "SKQGRPISPDRRAAGKLTDLASY[Orn]WLFWTGIA (not fully specified; printed as SKQGRPISPDRRAAGKLT-Asp-LASY-Orn-WLFWTGIA)", "note": "[SKQGRPISPDRRAAGKLT-Asp-LASY-Orn-WLFWTGIA]", "EC50 [µM], FXa generation assay": "< 0.5"}, {"binder": "C(Succinimide(1-Et,3-yl))[PEG4′]LVPR[PEG4′][dR]RAPGKLTCLASYCWLFWTGIA (cysteine pairing not given here)", "note": "[C(N-ethylmaleimide)-PEG4-LVPR-PEG4-rRAPGKLTCLASYCWLFWTGIA]", "EC50 [µM], FXa generation assay": "> 1"}, {"binder": "AIGTWFLWCYSALCTLKGPARR (not fully specified; printed as AIGTWFLWCYSALCTLKGPARR (retro); cysteine pairing not given here)", "note": "[AIGTWFLWCYSALCTLKGPARR (retro)]", "EC50 [µM], FXa generation assay": "> 1"}, {"binder": "KLTCLASYCALF", "EC50 [µM], FXa generation assay": "> 1"}, {"binder": "KLTALASYCWLF", "EC50 [µM], FXa generation assay": "> 1"}, {"binder": "KKLTCLASYCWLF", "EC50 [µM], FXa generation assay": "< 0.5"}, {"binder": "[dR]RAPGKLTCLASYCWLFWTGIA[PEG4(3)]C(N‑PEG5k maleimide) (cysteine pairing not given here)", "note": "[rRAPGKLTCLASYCWLFWTGIA-PEG4-C(N-PEG5k maleimide)]", "EC50 [µM], FXa generation assay": "> 1"}, {"binder": "RRRKLTCLASYCWLFRRR", "EC50 [µM], FXa generation assay": "> 1"}, {"binder": "KATCLASYCWLF", "EC50 [µM], FXa generation assay": "< 0.5"}, {"binder": "KLTCAASYCWLF", "EC50 [µM], FXa generation assay": "< 0.5"}, {"binder": "CGGGLVPRGGGRRAPGKLTDLASYKWLFWTGIA", "note": "[CGGGLVPRGGG-RRAPGKLT-Asp-LASY-Lys-WLFWTGIA]", "EC50 [µM], FXa generation assay": "< 0.5"}, {"binder": "C(N‑PEG5kmaleimide)[PEG4′]SKQGRPISPD[dR]RAAGKLTCLASYCWLFWTGIA (cysteine pairing not given here)", "note": "[C(N-PEG5kmaleimide)-PEG4-SKQGRPISPDrRAAGKLTCLASYCWLFWTGIA]", "EC50 [µM], FXa generation assay": "> 1"}, {"binder": "ALTCLASYCWLF", "EC50 [µM], FXa generation assay": "> 1"}, {"binder": "KLACLASYCWLF", "EC50 [µM], FXa generation assay": "< 0.5"}, {"binder": "[dA][dI]G[dT][dW][dF][dL][dW][dC][dY][dS][dA][dL][dC][dT][dL][dK]G[dP][dA][dR][dR] (cysteine pairing not given here; also: retro-inverso)", "note": "[aigtwflwcysalctlkgparr (retro-inverso)]", "EC50 [µM], FXa generation assay": "> 1"}, {"binder": "KLTCLASYCWLA", "EC50 [µM], FXa generation assay": "< 0.5"}]}]}
